# Test results from the supplement of paper PMC9732359.
# ± gives the uncertainty stated by the source.
# Assay: protein stability index of a GFP-peptide fusion (yeast GPS) (PSI 1-4); higher = more stable; sorted into four equal gates, so the index is relative within each strain
# Procedure, shortened: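 Yeast carrying a pooled library were grown to mid-log phase in leucine-free medium. Each library plasmid expresses Cherry and has a tiled 17-residue yeast protein peptide fused downstream of GFP. Cells were sorted into four equal gates by GFP/Cherry ratio, and plasmids from each gate were PCR-amplified, Illumina-sequenced and assigned to strains by barcode. Summing, across gates, the read frequency times the gate number gave each peptide's protein stability index.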
Sequence,protein stability index (doa10∆),protein stability index (pdr5∆),protein stability index (san1∆),protein stability index (ubr1∆)
LISSSQDMQLKIWSVKD [RPN14],2.7 ± 0.12,2.73 ± 0.22,2.56 ± 0.17,2.59 ± 0.1
LITSSARKELPIFDYIH [SIR3],2.16 ± 0.056,2.06 ± 0.061,1.92 ± 0.068,2.48 ± 0.048
LIYHLKDCAEVDSRTKI [IRR1],3.23 ± 0.086,3.18 ± 0.072,3.02 ± 0.058,3.23 ± 0.092
LKAQITSLKCLVNRKPI [SNF2],2.05 ± 0.045,1.77 ± 0.038,1.6 ± 0.062,1.61 ± 0.032
LKDFNTERVVEIGPSPT [FAS2],2.888 ± 0.024,2.901 ± 0.022,2.861 ± 0.017,2.716 ± 0.014
LKENNAILQKSLKNVTE [YIL149C/MLP2],2.67 ± 0.049,2.57 ± 0.057,2.89 ± 0.038,2.75 ± 0.044
LKEVLYNDSATSGEAAA [RPN2],1.45 ± 0.057,1.52 ± 0.063,1.86 ± 0.11,1.28 ± 0.056
LKEVPTYRYVSVSVLVD [RPS25A],2.64 ± 0.079,2.13 ± 0.069,1.33 ± 0.1,1.66 ± 0.038
LKEYQSKIIVFPRDGKA [RPL13B],2.95 ± 0.082,3.17 ± 0.072,3.22 ± 0.048,3.17 ± 0.054
LKEYQSKIIVFPRNGKA [RPL13A],3.04 ± 0.088,2.9 ± 0.091,2.98 ± 0.055,3 ± 0.076
LKIYAQIEKKEIKKMII [YCG1],3.06 ± 0.059,2.8 ± 0.051,2.89 ± 0.057,3.01 ± 0.07
LKIYYKEEFSSDESIER [RRI2],–,2.43 ± 0.15,2 ± 0.23,2.9 ± 0.11
LKLENLHVVSKSSIEKD [SIN4],3.13 ± 0.094,2.74 ± 0.11,3.14 ± 0.1,3.12 ± 0.068
LKLNTSLPSKLTKYKEM [SRP68],1.77 ± 0.075,1.74 ± 0.065,1.58 ± 0.1,1.95 ± 0.053
LKLSMADYNGALLRVTK [POP4],2.82 ± 0.076,2.52 ± 0.05,2.61 ± 0.07,2.52 ± 0.053
LKNYVLNELHPTLPTNH [PRP8],2.73 ± 0.047,3.04 ± 0.054,2.53 ± 0.064,2.67 ± 0.031
LKPKLYYEQFRPDLIKE [SIR3],3.06 ± 0.073,3.15 ± 0.06,3.25 ± 0.05,3.33 ± 0.045
LKRSTELLETVSLTKRK [YIL149C/MLP2],1.66 ± 0.056,2.06 ± 0.045,2.09 ± 0.079,1.6 ± 0.027
LKSLNDIETQLCSMLQE [MED11],2.54 ± 0.084,2.91 ± 0.079,2.73 ± 0.11,3 ± 0.059
LKSLYSFFNISPDAPKE [SIN4],2.32 ± 0.093,1.38 ± 0.048,1.43 ± 0.079,1.84 ± 0.049
LKTKLLEEVEGSCTGKF [RPB7],3.53 ± 0.29,2.84 ± 0.22,–,–
LKTVLHNGRDKIQFHIH [RGR1],1.49 ± 0.047,1.49 ± 0.05,1.41 ± 0.074,1.39 ± 0.048
LKYHDFLRKATAFNKTR [RPL16B],2.98 ± 0.047,3.06 ± 0.054,2.77 ± 0.053,3.08 ± 0.036
LKYYQDLKNTRMKSITS [SNF5],1.45 ± 0.23,2.24 ± 0.19,2.4 ± 0.15,2.98 ± 0.22
LLDAGCKVVAEMIRGRS [SKP1],–,2.06 ± 0.14,–,1.91 ± 0.1
LLDAYSHIESDSTSHNN [MED1],2.73 ± 0.051,2.93 ± 0.048,2.6 ± 0.057,2.89 ± 0.038
LLEGLNEKIEKRSDLTG [UBP6],2.89 ± 0.092,3.11 ± 0.063,3.18 ± 0.081,3.32 ± 0.098

Sequence,protein stability index (doa10∆),protein stability index (pdr5∆),protein stability index (san1∆),protein stability index (ubr1∆)
LLESYKTLSLKSMASAF [RPN7],1.67 ± 0.093,2.31 ± 0.11,1.89 ± 0.14,1.12 ± 0.033
LLFEDLFKKFNNDFKLS [RET1],–,1.39 ± 0.23,–,2.73 ± 0.13
LLGIFDDIFIPQNMLFE [RPC25],2.33 ± 0.15,2.7 ± 0.17,2.52 ± 0.095,2.69 ± 0.1
LLGTMAGGAADCQFWET [PRE2],1.61 ± 0.069,2.6 ± 0.078,2.22 ± 0.084,2.65 ± 0.078
LLHERKLLNDLALENGE [NUT1],2.75 ± 0.06,2.66 ± 0.073,2.54 ± 0.083,2.84 ± 0.039
LLIISCIIFITFEFINI [YML031W/NDC1],1.29 ± 0.038,1.43 ± 0.038,1.28 ± 0.079,1.28 ± 0.029
LLISYGVSIENENKVII [SRB4],2.1 ± 0.096,2.36 ± 0.14,3.13 ± 0.092,2.93 ± 0.12
LLKDIFANNLKSAISNN [SIR4],2.46 ± 0.044,2.48 ± 0.042,2.44 ± 0.043,2.44 ± 0.037
LLKEEKIIELMNKIFTI [YML103C/NUP188],2.81 ± 0.088,1.57 ± 0.097,1.26 ± 0.15,1.79 ± 0.25
LLKLERKKTEAVARLKS [SNF2],1.89 ± 0.068,2.14 ± 0.083,2.06 ± 0.091,1.97 ± 0.061
LLLAANTHLGARNVQVH [RPS0A],1.93 ± 0.04,1.21 ± 0.039,1.17 ± 0.061,1.13 ± 0.036
LLLDNGFNMKKITTSTE [SRP68],2.19 ± 0.18,2.22 ± 0.091,3.05 ± 0.17,2.88 ± 0.1
LLLKDQQTAKKLIPKLY [ECM29],2.1 ± 0.054,2.46 ± 0.061,2.32 ± 0.096,1.66 ± 0.053
LLLKKLDNFQKSVEKTM [SMC3],2.54 ± 0.2,2.74 ± 0.23,2.44 ± 0.24,2.88 ± 0.17
LLLTIQLLIIEKEWENA [SRP72],1.42 ± 0.053,1.73 ± 0.059,2.07 ± 0.12,2.26 ± 0.045
LLNDECTESTRENALYD [SNF2],3.39 ± 0.2,3.07 ± 0.15,3.31 ± 0.071,3.69 ± 0.15
LLNEYRPHQSRESLIML [MED7],2.31 ± 0.074,2.15 ± 0.12,2.01 ± 0.12,1.98 ± 0.059
LLNHGERAELETDEYIS [RPN1],1.55 ± 0.16,1.87 ± 0.083,3.08 ± 0.11,2.66 ± 0.11
LLNLPPFQVSSFVKETK [SRB8],1.94 ± 0.039,1.88 ± 0.035,2.04 ± 0.05,2.02 ± 0.04
LLPANLLSLNSVRSLQK [SRP68],2.71 ± 0.059,2.48 ± 0.063,2.49 ± 0.057,2.81 ± 0.046
LLQEGGSLSGNSSSMEE [ESC2],2.97 ± 0.11,2.67 ± 0.16,2.38 ± 0.13,2.64 ± 0.096
LLQKMLNLLNYQELFIQ [YML103C/NUP188],2.4 ± 0.053,1.47 ± 0.038,1.38 ± 0.07,1.52 ± 0.036
LLRPSSKVIIKFLQVMQ [RPS22B],1.87 ± 0.069,1.61 ± 0.044,1.72 ± 0.13,1.82 ± 0.058
LLRSRLATRRVLQEYRL [RPO21],2.62 ± 0.067,2.07 ± 0.083,2.27 ± 0.11,1.63 ± 0.072
LLTKNVSCYRPRRDGER [RPS6A],1.24 ± 0.22,2.8 ± 0.12,3.19 ± 0.085,3.4 ± 0.096
LLVFRNADLDLDEMELH [YDL116W/NUP84],3.01 ± 0.074,2.45 ± 0.073,3.01 ± 0.054,2.73 ± 0.047
